Target: thrombin (human plasma, Sigma-Aldrich) (Homo sapiens, UniProt P00734;P00734 328-363;364-622)
Assay: EMSA; 1 nM aptamer, thrombin 0.1x-100x; SICS: thrombin in 1 M KCl (or 150 mM KCl), pH 7.5, 30 min incubation, 300 mV; gel: 16% Tris-Glycine; temperature not stated

B1: extended TBA 1 annealed to Cy5 gap oligo (mixed)
DNA 1: TCAGCTTGCGGAGATGCGATGGTTGGTGTGGTTGGATCGAGAAAAAGGTACGCCC
DNA 2: GGGCGTACCTTTTTCTCGATATCGCATCTCCGCAAGCTGA
binding result: binds
